Values quoted from earlier work as cited in paper PMC5535775.

Target: DIAPH1 FH1 (Homo sapiens) (UniProt O60610)
Assay: NMR

Sequence of UniProt O60610 (O60610 580-767): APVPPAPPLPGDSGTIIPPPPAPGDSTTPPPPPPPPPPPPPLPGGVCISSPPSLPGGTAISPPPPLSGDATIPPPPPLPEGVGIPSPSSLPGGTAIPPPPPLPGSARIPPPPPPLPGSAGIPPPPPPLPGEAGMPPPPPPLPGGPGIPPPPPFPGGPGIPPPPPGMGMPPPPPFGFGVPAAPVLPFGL

RAGE cytoplasmic domain (from UniProt Q15109)
Kd: < 10 µM
